Test: yeast display, Sf9 membrane polyspecificity reagent, FACS + sequencing; frameworks hold sequencing errors
In short: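 Nanobodies came from a synthetic yeast display library in Saccharomyces cerevisiae BJ5465, induced with galactose for 36–48 hours and stained for 1 hour at 4 °C with 10% biotinylated, detergent-solubilized Sf9 membrane reagent. Cells were enriched on streptavidin microbeads and then FACS-sorted, with low and high (top ~1%) gates set on anti-HA fluorescence for expression and streptavidin fluorescence for reagent binding. Each polyreactivity label reflects the gate a clone came from. Genes were amplified by colony PCR, sequenced by MiSeq 2 × 250 and filtered by CDR length.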

Row | Sequence | polyreactivity (PSR sort gate)
1 | QDQLVESGGGLVQAGGSLRLSCAASGSIFRYYDMGWSRQAPGKERELVAAISDSTGTTYYADSVKGRFTISRDNAKNTVYLQMNSLKPEDTAVYYCNTAYNRYWRPFNSLYYWGQGTQVTVSS | high polyreactivity
2 | QVQIVESGGGLVQAGGSLSLTCAASGSIITSNDMGWYRQAPGKERELVAAISKSGGRTYYAYSVKGRFTISRENEKNTDYLQMNCLKQEYTAVYYCHAGIYGYGYNPSYDYWGQGTQVTLSS | high polyreactivity
3 | QVQLVESGGGLVQAGGSLRLSCAASGYIFSYNAMGWYRQAPGKERELVAAMTASGGGTYYADSVKGRFTISRDNAKNTVYLQMNSLKPEDTAVYYCAADFNDHYYWYGQDYDYWGQGTQVTVSS | low polyreactivity
4 | QVQLVESGGGLVQAGGSLRLSCAAYGSTFTSYAMGWYRQAPGKERELVAAISSSGTRTYYADSVKGRFTISRDNAKNTVYLQMNSLKPEDTAVYYCAKASPYSKLYYWGQGTQGTVSS | high polyreactivity
5 | QVQLVESGGGLVQAGGSLRLSCDASGSIFSYYAMGWYRQAPGKERELVAAITYRGGSTFYADSVKGRFTLSRDNAKNTVYFQMNRLKPEDTAVYYCATRYYVDQRYQYKYDYWGQGTQVTVSS | high polyreactivity
6 | QVQLVESGGGLVQAGGSLRLSCAASGSTFWVYGMGWSRQAPGKERELVADITSIGGSTYYADSVKGRFTISRDNAKNTVYLQMNSLKPEDTAVYYCAARETWYPYYWMGYWGQGTQVTVSS | high polyreactivity
7 | QVQLVESGGGLVQAGGSLRLSCAASGFTFRYYAMGWYRQAPGKEREFVAAIRRSGANTYYADSVKGRFTISRDNAKNTVYLQMNSLKPEDTAVYYCGTRLRGSGRLYNYWGQGTQVTVSS | high polyreactivity
8 | QVQLVESGGGLVQAGGSLRLSCAASGRTFAFYAMGWYRQAPGKERELVAVITKSGGITYYADSVKGRFTISRDNAKNTVYLQMKSLKPEDTAVYYCAADYRYTPNYLYYYWGQGTQVTVSS | low polyreactivity
9 | QVQLVESGGGLVQAGGSLRLSCAASGFTFSINAMGWYRKAPGKERELVAGISWSGGITYYADSVKGRFTISRDNAKNTVYLQMNSLKPEDTAVYYCNTDYGLTTPVVWDDYWGQGTQVTVSS | low polyreactivity
10 | QVQLVESGGGLVQAGGSLRLSCAASGSIFTVYTMGWYRQAPGKERELVAAINSRGGTTYYADSVKGRFTISRDNAKNTVYLQMNSLKPEDTAVYYCAAKQRPKSYGPGHYYWGQGTQVTVSS | high polyreactivity
11 | QVQLVESGGGLVQAGGSLRLSCAASGIIFYENAMGWYRQAPGKERELVADITQSGGSTYYADSVKGRFTISRDNAKNTVYLQMNSLKPEDTAVYYCARDGDLWYYKGYGTLFDYWGQGTQVTVSS | low polyreactivity
12 | QVQLVESGGGLVQAGGSLRLSCAASGFTLSYYAMGWYRQAPRKERELVASISAIGGITYYADSVKGRFTISRDNAKNTVYLQMNSLKPEDSAVYYCIAGKRFTPYDYWGQGTQVTVSS | high polyreactivity
13 | QVQLVESGGGLVQAGGSLRLSCAASGFIFGYNAMGWYRQAAGKERELVAAISYSGGGTYYADSVKGRFTISRDNAKNTVYLQMNSLKPEDTAVYYCAARSWGRRSYDYWGQGTQVTVSS | high polyreactivity
14 | QVQLVESGGGLVQAGGSLRLSCAASGFTFRTNAMGWYRQAPGKEREFVATITRRGGSTYYADSVKGRFTISRDNAKKTVYLQLNSLKPEDTAVYYCNAVFSSQEYEYWGQGTQVTVSS | high polyreactivity
15 | QVQLVESGGGLVQAGGSLRLSCAATGRTLGGNAMGWYRLAPGKEREFVARISTRGVRTYYAYSVKGRFTISRDNAKNTVDLQLNSLNPEDTAVYYCAKQVSYGHIGSYPDRDSWGQGTQVTVSS | low polyreactivity
16 | QVQLVESGGGLVQAGGSLRLSCAASGRIFYYNAMGWYRQAPGKERELVAAITRGGSTYYADSVKGRFTISRDNAKNTVYLQMNCLKPVDTAVYYCAADRPGYSRYTTSVKGQRYYYWGQGTQVTVSS | high polyreactivity
17 | QVQLVESGGGLVQAGGSLRLSCAASGSIIAGYTMGWYRQAPGKERELVAGIRRGGSTNYADSVKGRFTISRDNAKNTVYLQMNSLKPEDTAVYYCAAYYRLDYDYWGQGTQVTVSS | high polyreactivity
18 | QVQLVESGGGLVQAGGSLRLSCAASGIIFSSNAMGWYRPAPGKERELVAAISNTGRTNYADSVKGRFTISRDNEKNTVYLQMNSLKPEDTAVYYCDARLSRRYYSYYYWGQGTQVTVSS | high polyreactivity
19 | QVQLVESGGGLLQAGGSLRLSCAASGRTFGFYTMGWYRQAPGKERELVAGISRGGSTTYADSVKGRFTISRDNAKKTVYVEMNSLKQEDTAVYYSNADRSHYWLPYGVRFDYWGLGTQVTVSS | low polyreactivity
20 | QVQLEESGGGLVQAGGSLRLSCAASGSTFYIYAMGSYRQAPGKERELVARMSGSGGSTYYADSVKGRFTISRDNAKNTVYLQMNSVKPEDTAVYYCAADDIYKYYQYYAFPYYRYDYWGQGTQVTVSS | low polyreactivity
21 | QVQLVESGGGLVQAGGSLRLSCAASGYIFYFYAMGWYRQAPGKERELVAAISSSGGSTRYADSVKGRFTISRDNAKNTVYLQMNSLKPEDTAVYYCAASHWSGAAWYYYWGQGTQVTVSS | high polyreactivity
22 | QVQLVESGGGLVQAGGSLRLSCAASGRIFKSYAMGWYRQAPGKEWELVAAISRGGRTNYADSVKGRFTISRDNAKNTVYLHMHSLKPEDTAVYYCAAYHRDRNSGFDYWGQGTQGTVSS | high polyreactivity

Row | Sequence | polyreactivity (PSR sort gate)
23 | QVQLVESGGGLVQAGGSLRLSCAASGFIFWSNAMGWYRQAPGKERELVAAISWSGGSTYYADSVKGRFTISRDNAKKTVYLQMNSLKPEDTAVYYCNTLNVQRDEHDYWGQGTQVTVSS | high polyreactivity
24 | QVQLVESGGGLVQAGGSLRLSCAASGSTFTVYAMGWYRQAPGKERELVAAISSSTGSTYYADSVKGRFTISRDNAKNTVYLQMNSLKPEDTAVSYCAADVYHVTTSSYTEFEYWGQGTQVTVSS | low polyreactivity
25 | QVHLVESGGGLVQAGGSLRLSCAASGGIFPGYAMGRYRKAPGKERELVAAITKRGGRTYYADSVKGRFTISRDNAKNTVYLQMNSLKPEDTAVYYCAADYYAAYHLPDQDYDYWGQGTQVTVSS | high polyreactivity
26 | QLQLVESGGGLVQAGGRLRLTCAASGRTFPYYFMGWYRPAPGKERELVAAINSGGRTNYADSVKGLFTISRDNAKNTVYLQMNSLKPEDTAVYYCTKRGHPARLGYYYWGQGTQVTVSS | low polyreactivity
27 | QVQLVESRGGLVQAGGSLRLSCAASGSNFYRNALGWYRQAPGKERELVAAISSDGSTNYADSVKGRFTISRDNAKNTVYLQLNSLKPEDTAVYSCAPHDRWHHRSLPYEYWGQGTQVTVSS | low polyreactivity
28 | QVQLVESGGGIVQAGGSLRLSSAASGFTFYYYAIGWYRQAPGKERELVAAISSGGSTYYADSVKGRFTISRDNAKNTVYLQMNSLKPEDTAVYYCAADSLYYRYDYWGQGTQVTVSS | low polyreactivity
29 | QVQLVESGGGLVQAGGSLRLSCAASGITFTSYAMGWYRQAPGKERELVAAISWSGDRTYYADSVKGRFTISRDNAKNTVYLQMNSLKPEDTAVYYCAAEWVSPWTGPGFDYWGQGTQVTVSS | high polyreactivity
30 | QVQLVESGGGLVQAGGSLRLSCAASGRIFLANAMGWYRQAPGKERELVAAISYSGGSTYYADSVKGRFTISRDNAKNTVYLQMNSLKPEDTAVYYCAADAFTWYTGRAWKYYYWGQGTQVTVSS | low polyreactivity
31 | QVQLVESGGGLVQAVGSLRLSCAASGFIFGTYAMGWYRQAPGKERELVAVITRGGTTYYADSVKGRFTISRDNAKNTVYLQMNSLKPEDTAVYYCAADPWALFVGDEYYYWGQGTQVTVSS | low polyreactivity
32 | QVQLVESGGGLVQAGGSLRLSCAASGRTFVSNAMGWYRQAPGKERELVARITGSGGTTYYADSVKGRFTISRDNAKNTVYLQMNSLKPEDTAVYYCNADVFRKFGSPSAYKSHRYDYWGQGTQVTVSS | low polyreactivity
33 | QVQLVESGGGLVQAGGSLRLSCAASGRIFGSYAMGWYRQAPGKERELVAAISWSGGRTYYADSVKGRFTISRDNAKNTVYLQMNSLKPEDTAVYYCNALVFGRYRDMDYWGQGTQVTVSS | high polyreactivity
34 | QVQLVESGGGLVQAGGSLRLSCAASGIIFWLYTMGWYRQAPGKERELVAAITSGGSTYYADSVKGRFTISRDNAKNTVYIQMNSLKPEDTAVYYCAAVPRYRRGKYDYWGQGTQVTVSS | high polyreactivity
35 | QVQLVESGGGLVQAGGSLRLSCAASGSTFGFYDMGWYRQAPGKERELVAAITSGDITYADSVKGRFTISRDNAKNTVYLQMNSLKPEDTAVYYCATTSYGYWFGYIPEVDYWGQGTQVTVSS | low polyreactivity
36 | QVQLVESGGGLVQAGGSLRLSCAASGRTFSYYAMRWYRQAPGKERELVAAITSGGSTYYADSVKGRFTISRDNAKNTVYLQMNSLKPEDTAVYYCAKYQSYGPVPFGRGYGHYYWGQGTQVTVSS | high polyreactivity
37 | QVQLEDSGGGLVQAGGSLPLSCAASGLTFYVNARGWNRQAPGKERELVAGIDSGGSTYYAASVKGRFTISRDNAKNTVYLQMNSLKPEDTAVYYCAADEGYVWPYYGWGFGKYDYWGEGTQVTVSS | low polyreactivity
38 | QVQLVESGGGLVQAGGSLRLSCAASGFTFVNYAMGWYRQAPGKERELVAASSRSGGRTYYADSVKGRFTISRDNAKNTVYLQKNSLKPEDTAVYYCARLLLSPEYGYWGQGTQVTVSS | high polyreactivity
39 | QVQLVESGGGLFQARGSLRLSCAASGSTFGFYARGWYRQATGKERELVAASSRGGSTNYADSVKGRFTISRDNAKNTVYLQLNSLKPEDTAGYYCAKAYHATSDYWGQGTQVTVSS | low polyreactivity
40 | QVQLVESGGGLVQAGGSLRLSCAASGRNFKQYAMGWYRQAHGKERELVAAISVRGGITYYADSVKGRFTISRDNAKNTVYLQMNSLKPEVTGVYYCAKRSYRTHTYDYWGQGTQVTVSS | low polyreactivity
41 | QVQIVESGGGIVQAGGSLRLSCAASGRTLQTYVMGWYRQSPGKEREWVAAITRGGGSTYYADSVKGRFTISRDNAKNTVYLQMNSLKPEDTAVYYCAASALRFNSSFSHWYNYWGQGTQVTVSS | high polyreactivity
42 | QVQLVESGGGLVQAGGSLRLSCAASGNIFRKNAMGWYRQAPGKERELVAAITSVGSTNYADSVKGRFTISRDNAKNTVYLQMTSLKPEDTAVYYCDARSQIYYRYRSYGYWGQGTQVTVSS | high polyreactivity
43 | QVQLVESGGGLVQAGGSLRLSCAASGSIFADYAMGWYRQAPGKERELVAAISYNGDSTYYADSVKGRFTISRDNAKNTVYLQMNSLKPEDTAVYYCNAAARRYTSVFYTSGYTFDYWGQGTQVTVSS | low polyreactivity

— the nanobody polyreactivity screen of Harvey et al. (2022)
